Data on 3 molecules can be found in US20240343800A1 (Merck KGaA, published 2024).

Test [1] has as its target T1, human ROR1 (on cells) (human, UniProt Q01973 30-937). In words: cell-based or functional assay.
Test [2] has as its target T1, human ROR1 (on cells). As to the kind of experiment: cell-based or functional assay. This is another data set of the same source.
In test [3] the target is T1, human ROR1 (on cells). In words: cell-based or functional assay. This is another data set of the same source.
Test [4] deals with T2, human CD3 (on Jurkat T cells or human CD8+ T cells) (human, UniProt P07766 23-207; P09693 23-182; P04234 22-171; P20963 22-164).
T2 construct: Entries are printed with signal peptides; also called huCD3; CD3ε
T2 sequence (P07766 23-207 limits assumed, chain 1 of 4): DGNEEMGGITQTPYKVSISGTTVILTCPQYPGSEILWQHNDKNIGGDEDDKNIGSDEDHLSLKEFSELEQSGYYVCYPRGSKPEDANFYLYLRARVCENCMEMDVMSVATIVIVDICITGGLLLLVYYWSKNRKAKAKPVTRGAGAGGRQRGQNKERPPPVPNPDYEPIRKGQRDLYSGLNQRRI
T2 sequence (P09693 23-182 limits assumed, chain 2 of 4): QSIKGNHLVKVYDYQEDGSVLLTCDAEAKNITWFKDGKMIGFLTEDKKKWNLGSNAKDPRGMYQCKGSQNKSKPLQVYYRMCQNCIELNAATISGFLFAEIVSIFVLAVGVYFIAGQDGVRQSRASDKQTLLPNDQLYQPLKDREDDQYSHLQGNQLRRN
T2 sequence (P04234 22-171 limits assumed, chain 3 of 4): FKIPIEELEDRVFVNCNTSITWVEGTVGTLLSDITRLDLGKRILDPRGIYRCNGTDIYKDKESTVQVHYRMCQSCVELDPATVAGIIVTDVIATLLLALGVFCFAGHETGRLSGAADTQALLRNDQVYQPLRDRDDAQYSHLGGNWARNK
T2 sequence (P20963 22-164 limits assumed, chain 4 of 4): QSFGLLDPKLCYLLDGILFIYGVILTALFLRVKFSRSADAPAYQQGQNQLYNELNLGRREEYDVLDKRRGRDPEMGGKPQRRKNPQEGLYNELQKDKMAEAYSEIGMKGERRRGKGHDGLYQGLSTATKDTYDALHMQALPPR
In words: flow cytometry, Jurkat T cells. How it is done: (§1) After washing twice with 200 μL of phosphate buffered saline (PBS) by centrifugation at 500×g for 5 minutes at room temperature, the cells were resuspended in 100 μL of Live/Dead fixable green working buffer (ThermoFisher Scientific, Cat No: L23101; one vial of Live/Dead fixable green powder was dissolved into 50 μL of DMSO and 1 μL of dissolved Live/Dead fixable green was added to 1 mL of PBS to prepare the working buffer). After 15-minutes of incubation at room temperature, the cells were washed twice with 200 μL of PBS by centrifugation at 500×g for 5 minutes at room temperature and resuspended in […] of 10% goat serum in BD staining buffer (BD Biosciences, Cat No: 554657). […] The plates were then covered with foil to avoid direct light and incubated for 60 minutes at 4° C. […] After incubating for 30 minutes at 4° C., the cells were washed twice with 200 μL of PBS by centrifugation at 500×g for 5 minutes at room temperature and resuspended into 100 μL of fixation buffer (BioLegend, Cat No: 420801). The samples were then analyzed on a flow cytometer for binding signal using FlowJo software. ROR and CD3 binding EC₅₀s (concentration vs mean fluorescence intensity (MFI)) for reference molecules and test bispecific TCEs were obtained using 4-parameter non-linear regression curve fitting in GraphPad Prism.

In test [5] the target is T1, human ROR1 (on cells). As to the kind of experiment: cell-based or functional assay. This is another data set of the same source.
Test [6] addresses T3, cynomolgus CD3 (on cynomolgus pan-T cells) (cynomolgus, UniProt Q95LI5 22-198).
T3 construct: whole, on cells
In words: flow cytometry, cynomolgus pan-T cells. How it is done: as §1

Test [7] addresses T1, human ROR1 (on cells). In words: flow cytometry, MDA-MB-231 cells. How it is done: as §1
The target of test [8] is T1, human ROR1 (on cells). As to the kind of experiment: flow cytometry, MDA-MB-231 cells; reference: Ref. Frz-binding TCE. The method, then:
as §1

The target of test [9] is T2, human CD3 (on Jurkat T cells or human …). In words: flow cytometry; reference: 69A02 TCE in Format 1A. How it is done: The plates were then covered with foil to avoid direct light and incubated for 60 minutes at 4° C. […] After incubating for 30 minutes at 4° C., the cells were washed twice with 200 μL of PBS by centrifugation at 500×g for 5 minutes at room temperature and resuspended into 100 μL of fixation buffer (BioLegend, Cat No: 420801). The samples were then analyzed on a flow cytometer for binding signal using FlowJo software. ROR and CD3 binding EC₅₀s (concentration vs mean fluorescence intensity (MFI)) for reference molecules and test bispecific TCEs were obtained using 4-parameter non-linear regression curve fitting in GraphPad Prism.

Test [10] addresses T1, human ROR1 (on cells). In words: flow cytometry competition on NCCIT cells: pre-treatment with titrated unlabelled scFv-Fc, then 146 nM 82H02 scFv-Fc labelled with Alexa Fluor 647-conjugated Zenon fragments.

T3 sequence (Q95LI5 22-198): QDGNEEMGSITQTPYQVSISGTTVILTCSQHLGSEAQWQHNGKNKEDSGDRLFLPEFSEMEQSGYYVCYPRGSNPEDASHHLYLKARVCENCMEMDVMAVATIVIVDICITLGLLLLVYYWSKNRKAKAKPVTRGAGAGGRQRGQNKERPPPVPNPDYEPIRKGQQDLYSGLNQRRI

B1: bispecific TCE 69A02 in Format 1A (bispecific antibody)
heavy 1: EVQLVESGGGLVQPGGSLRLSCAASGFTFNTYAMNWVRQAPGKGLEWVARIRSKYNNYATYYADSVKDRFTISRDDSKNTLYLQMNSLRAEDTAVYYCVRHGNFGNSYVSWFAYWGQGTMVTVSSASTKGPSVFPLAPSSKSTSGGTAALGCLVKDYFPEPVTVSWNSGALTSGVHTFPAVLQSSGLYSLSSVVTVPSSSLGTQTYICNVNHKPSNTKVDKKVEPKSCDKTHTCPPCPAPPVAGPSVFLFPPKPKDTLMISRTPEVTCVVVDVSHEDPEVKFNWYVDGVEVHNAKTKPREEQYNSTYRVVSVLTVLHQDWLNGKEYKCAVSNKALAAPIEKTISKAKGQPFRPEVHLLPPSREEMTKNQVSLTCLARGFYPKDIAVEWESNGQPENNYKTTPSRQEPSQGTTTFAVTSKLTVDKSRWQQGNVFSCSVMHEALHNHYTQKTISLSPGK
heavy 2: ETTLTQSPATLSVSPGETATLSCRASQSVSSNLAWYQQKPGQAPRLLIYGASTRATGIPATFSGSGSGTEFTLTISSLQSEDFAIYYCQQYKNWPPAFGGGTELEIKGGGGSGGGGSGGGGSGGGGSQVTLKESGPTLVKPTQTLTLTCSFSGFSITTSGVSVGWIRQPPGKALEWLALIYWDDDKRYSPSLKSRLTITRDTSKNQVVLTMTNMDPVDTATYYCAHAPRYTPGGYFDYWGQGTLVTVSSEPKSSDKTHTCPPCPAPPVAGPSVFLFPPKPKDTLMISRTPEVTCVVVDVSHEDPEVKFNWYVDGVEVHNAKTKPREEQYNSTYRVVSVLTVLHQDWLNGKEYKCAVSNKALAAPIEKTISKAKGQPREPQVYTLPPPSEELALNELVTLTCLVKGFYPSDIAVEWLQGSQELPREKYLTWAPVLDSDGSFFLYSILRVAAEDWKKGDTFSCSVMHEALHNRFTQKSLDRSPGKGGGGSGGGGSGGGGSGGGGSETTLTQSPATLSVSPGETATLSCRASQSVSSNLAWYQQKPGQAPRLLIYGASTRATGIPATFSGSGSGTEFTLTISSLQSEDFAIYYCQQYKNWPPAFGGGTELEIKGGGGSGGGGSGGGGSGGGGSQVTLKESGPTLVKPTQTLTLTCSFSGFSITTSGVSVGWIRQPPGKALEWLALIYWDDDKRYSPSLKSRLTITRDTSKNQVVLTMTNMDPVDTATYYCAHAPRYTPGGYFDYWGQGTLVTVSS
light: QAVVTQEPSLTVSPGGTVTLTCRSSTGAVTTSNYANWVQQKPGQAPRGLIGGTNKRAPGTPARFSGSLLGGKAALTLSGVQPEDEAEYYCALWYSNLWVFGGGTKLTVLGQPKAAPSVTLFPPSSEELQANKATLVCLISDFYPGAVTVAWKADSSPVKAGVETTTPSKQSNNKYAASSYLSLTPEQWKSHRSYSCQVTHEGSTVEKTVAPTECS
notes: also called 69A02 TCE 1A; 69A02x1F3.5
Regarding B1, the “TDCC EC50, PBMCs + ROR1+ MDA-MB-231 cells” value with human ROR1 (on cells) [1] is 0.0194 nM. Moreover, in the test with human ROR1 (on cells) [2], the “EC50 of IFNγ release, human CD8+ T cells + ROR1+ MDA-MB-231” value is 0.0215 nM. Besides, in the test with human ROR1 (on cells) [3], the “IFNγ release EC50, PBMCs + ROR1+ MDA-MB-231 cells” value stood at 0.0876 nM. The figures for the concentration for a half-maximal effect (EC50) (in test [4]; in [6]; with human ROR1 (on cells) [7]) were 10.4 nM, 13.4 nM and 0.23 nM, respectively. Also, the “EC50 of target cell killing (TDCC), human CD8+ T cells + ROR1+ MDA-MB-231” value with human ROR1 (on cells) [5] came to 0.0202 nM. In addition, in the test with human ROR1 (on cells) [8], the “fold higher apparent binding affinity” value was greater than 30 fold.

B2: bispecific TCE 69A02 in Format 1B (bispecific antibody)
heavy 1: ETTLTQSPATLSVSPGETATLSCRASQSVSSNLAWYQQKPGQAPRLLIYGASTRATGIPATFSGSGSGTEFTLTISSLQSEDFAIYYCQQYKNWPPAFGGGTELEIKGGGGSGGGGSGGGGSGGGGSQVTLKESGPTLVKPTQTLTLTCSFSGFSITTSGVSVGWIRQPPGKALEWLALIYWDDDKRYSPSLKSRLTITRDTSKNQVVLTMTNMDPVDTATYYCAHAPRYTPGGYFDYWGQGTLVTVSSEPKSSDKTHTCPPCPAPPVAGPSVFLFPPKPKDTLMISRTPEVTCVVVDVSHEDPEVKFNWYVDGVEVHNAKTKPREEQYNSTYRVVSVLTVLHQDWLNGKEYKCAVSNKALAAPIEKTISKAKGQPFRPEVHLLPPSREEMTKNQVSLTCLARGFYPKDIAVEWESNGQPENNYKTTPSRQEPSQGTTTFAVTSKLTVDKSRWQQGNVFSCSVMHEALHNHYTQKTISLSPGKGGGGSGGGGSGGGGSGGGGSEVQLVESGGGLVQPGGSLRLSCAASGFTFNTYAMNWVRQAPGKGLEWVARIRSKYNNYATYYADSVKDRFTISRDDSKNTLYLQMNSLRAEDTAVYYCVRHGNFGNSYVSWFAYWGQGTMVTVSSASTKGPSVFPLAPSSKSTSGGTAALGCLVKDYFPEPVTVSWNSGALTSGVHTFPAVLQSSGLYSLSSVVTVPSSSLGTQTYICNVNHKPSNTKVDKKVEPKSS
heavy 2: ETTLTQSPATLSVSPGETATLSCRASQSVSSNLAWYQQKPGQAPRLLIYGASTRATGIPATFSGSGSGTEFTLTISSLQSEDFAIYYCQQYKNWPPAFGGGTELEIKGGGGSGGGGSGGGGSGGGGSQVTLKESGPTLVKPTQTLTLTCSFSGFSITTSGVSVGWIRQPPGKALEWLALIYWDDDKRYSPSLKSRLTITRDTSKNQVVLTMTNMDPVDTATYYCAHAPRYTPGGYFDYWGQGTLVTVSSEPKSSDKTHTCPPCPAPPVAGPSVFLFPPKPKDTLMISRTPEVTCVVVDVSHEDPEVKFNWYVDGVEVHNAKTKPREEQYNSTYRVVSVLTVLHQDWLNGKEYKCAVSNKALAAPIEKTISKAKGQPREPQVYTLPPPSEELALNELVTLTCLVKGFYPSDIAVEWLQGSQELPREKYLTWAPVLDSDGSFFLYSILRVAAEDWKKGDTFSCSVMHEALHNRFTQKSLDRSPGK
light: QAVVTQEPSLTVSPGGTVTLTCRSSTGAVTTSNYANWVQQKPGQAPRGLIGGTNKRAPGTPARFSGSLLGGKAALTLSGVQPEDEAEYYCALWYSNLWVFGGGTKLTVLGQPKAAPSVTLFPPSSEELQANKATLVCLISDFYPGAVTVAWKADSSPVKAGVETTTPSKQSNNKYAASSYLSLTPEQWKSHRSYSCQVTHEGSTVEKTVAPTECS
notes: also called 69A02 TCE 1B; 1B_69A02x1F3.5 (1B)
In the case of B2, in the test with human ROR1 (on cells) [1], the “TDCC EC50, PBMCs + ROR1+ MDA-MB-231 cells” value turned out to be 0.048 nM. In addition, the “EC50 of IFNγ release, human CD8+ T cells + ROR1+ MDA-MB-231” value with human ROR1 (on cells) [2] was 0.0289 nM. In the test with human ROR1 (on cells) [3], the “IFNγ release EC50, PBMCs + ROR1+ MDA-MB-231 cells” value came out at 2.09 nM. The EC50 came out at 35.9 nM in test [4], 17.6 nM in [6] and 0.43 nM with human ROR1 (on cells) [7]. In addition, the “EC50 of target cell killing (TDCC), human CD8+ T cells + ROR1+ MDA-MB-231” value with human ROR1 (on cells) [5] amounted to 0.0356 nM. Moreover, in test [9], the “fold lower apparent binding affinity” value is roughly 4 fold. For the same molecule, the “fold higher apparent binding affinity” value in the test with human ROR1 (on cells) [8] is greater than 30 fold.

B3: 82H02 scFv-Fc (Fc fusion)
VH: EVQLLESGGGLVQPGGSLRLSCAASGFTFTSYAMSWVRQAPGKGLEWVSTISGSGGGTYYTDSVKGRFTISRDNSKNTLYLQMNSLRAEDTAVYYCAQGSSIFDYWGQGTLVTVSS
VL: EIVLTQSPATLSLSPGERATLSCRASQSVSSYLAWYQQKPGQAPRLLIYDASNRATGIPARFSGSGSGTDFTLTISSLEPEDFAVYYCQQRSNWPPCTFGQGTRLEIK
notes: scFv-Fc format; also called unlabelled 82H02 scFv-Fc
As for B3, the “IC50 (read off the curve)” value with human ROR1 (on cells) [10] is roughly 2 nM.
